The results in this text go back to article PMC9603474, “Genome-Wide Identification of DOF Gene Family and the Mechanism Dissection of SbDof21 Regulating Starch Biosynthesis in Sorghum”.

The target in the data set is T1, SbDOF21 (Sorghum bicolor cv. BTx623, UniProt C5Y2M8 1-340).
T1 sequence: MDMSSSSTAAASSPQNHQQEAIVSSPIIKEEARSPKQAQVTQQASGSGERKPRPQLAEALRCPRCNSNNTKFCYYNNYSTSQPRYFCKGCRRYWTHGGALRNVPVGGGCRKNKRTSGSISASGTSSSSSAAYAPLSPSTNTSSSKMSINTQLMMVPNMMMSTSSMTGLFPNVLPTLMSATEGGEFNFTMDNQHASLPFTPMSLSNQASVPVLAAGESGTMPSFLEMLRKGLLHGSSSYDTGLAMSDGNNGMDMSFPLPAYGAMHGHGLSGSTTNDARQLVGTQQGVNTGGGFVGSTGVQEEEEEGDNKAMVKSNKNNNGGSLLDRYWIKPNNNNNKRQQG
Description: EMSA; 20-fold unlabeled probe partly reduced the shift; Chemiluminescent EMSA Kit (Beyotime) per instructions; buffer, salt, pH and temperature not stated. As to conditions: protein: recombinant; tags: His (pET32a, N-terminal vector fusion); blunt. For orientation: A gel shift assay detects complexes by their altered migration in electrophoresis.

B1: 4x P-Box (dsDNA)
DNA 1: TGTAAAGTGTAAAGTGTAAAGTGTAAAG
DNA 2: CTTTACACTTTACACTTTACACTTTACA
B1: the binding result is recorded as “binds”.
